Assay results as given in the supplement of paper PMC10126150.
± gives the standard deviation of the averaged measurements.

These sequences were tested on ATP (assay: switch fluorescence ratio, 500 uM ATP over buffer (Cy3 cluster intensity, sum of 5 cycles each) (fold (ratio)); higher = stronger signal-on switching upon ATP binding; sequences stand for … in TCGTCGGCAGCGTCAGATGTGTATAAGAGACAGTTTTTTTTTTTTTTTTTTTTTTTTT…TC). Conditions: aptamer strand: ATP DNA aptamer (quencher-CACCTGGGGGAGTATTGCGGAGGAAGG + anchor), 100 nM annealed; ATP concentration: 500 uM.
Procedure, shortened: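 Per cluster, summed Cy3 intensity from the target cycles was divided by that from the buffer cycles to give the fluorescence ratio, then averaged per switch-domain sequence. Clusters outside 100-1000 RFU were excluded. The Cy3-labelled switching-strand clusters, on a modified Illumina MiSeq flow-cell, were annealed to 100 nM quencher-labelled ATP aptamer and imaged in selection buffer, then after 15 min with 500 uM ATP at 22 °C, for five cycles with NaOH stripping and re-annealing between them.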
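Also: ATP exposure 15 min at 22 °C before imaging.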

Sequence	switch fluorescence ratio
GATCTGTGGA	0.95 ± 0.052
AAGTAGCCGT	1.19 ± 0.19
GTTTTCTATA	0.975 ± 0.039
TTAATCGCTC	1.02 ± 0.021
GGAAGTGTGT	0.949 ± 0.021
GTCATAGGTG	1.28 ± 0.087
ATTTTATTGT	1 ± 0.05
GTGAAACGGG	0.998 ± 0.07
AAGGCATTAT	1.005 ± 0.0081
TCTGGTAGCG	1.02 ± 0.021
TATCTATATT	1 ± 0.016
CGGTGTGTCC	0.97164 ± 0.00017
GCTTGTGCAT	0.989 ± 0.028
GCAGCTGGTA	1.05 ± 0.024
TTGTTGTAGG	0.993 ± 0.041
GAGGCGCATC	1 ± 0.026
TGGGTGCATG	0.9897 ± 0.0049
AATTCGCGTT	0.9868 ± 0.004
ATTACGTCCT	1.03 ± 0.036
TGGGAAAGCT	1.256 ± 0.0016
TGCAGGGGTG	1.06 ± 0.022
ATCACTGGGC	1.1 ± 0.092
ATAAGTCCGA	0.99 ± 0.026

Sequence	switch fluorescence ratio
ATTCAATTTT	0.996 ± 0.051
GGGGATTAAG	0.971 ± 0.033
CCATCGCCGG	1 ± 0.081
ACGGGCTTCT	1.005 ± 0.0047
ACTTTGAAGT	0.993 ± 0.024
CATGGTATGT	1.01 ± 0.038
CTTTGGTGTT	1.01 ± 0.017
CGGAGGGGAT	1.062 ± 0.005
GCGCGTTAGC	1.007 ± 0.0014
GATAAACAAT	1.19 ± 0.28
TGAGTTCGAA	1 ± 0.028
TGAAGTTCGC	0.969 ± 0.021
TTTGTGTGTA	0.9846 ± 0.0097
CAGGGTGGTT	1.03 ± 0.028
TATAAATGAA	0.9921 ± 0.0043
AAGTTGATAA	1 ± 0.035
AGGTTTTGTT	0.964 ± 0.017
TGACGTTATG	1 ± 0.053
CAGTGCGCTA	1.15 ± 0.02
GATGGTGGTT	1.02 ± 0.044
TTTTGTTAAA	1.01 ± 0.028
ATTTCGGGGA	0.997 ± 0.042
GGCCTGGATT	1.05 ± 0.031

Sequence	switch fluorescence ratio
AGTGTACCCA	1.077 ± 0.01
TCAAATTGCC	0.982 ± 0.016
TTGGGATATG	1.02 ± 0.065
TGACGCAAAG	1.63 ± 0.065
ACGATGGGGA	1.04 ± 0.034
GGGTAAGTGC	1.047 ± 0.0017
TCGATTTTGG	1 ± 0.029
GGGGACTGCA	1.03 ± 0.049
ATGCAATGCT	3.19 ± 0.18
TTTCAGGACT	0.996 ± 0.041
CGTGTTTCGG	0.97715 ± 0.00018
TGGTTGTCCC	1.01 ± 0.038
TCGGTTACAT	0.983 ± 0.016
ACCGGATCGT	0.9828 ± 0.0035
TTGGGGTGAA	1.1 ± 0.14
TTTCTTTGAT	0.998 ± 0.029
GCAGTTGGGG	0.998 ± 0.032
GATGTAACTT	1.012 ± 0.0061
CGTTGGTGTG	1 ± 0.028
TGCAACGAGG	0.998 ± 0.035
TAGGGATGAT	0.9705 ± 0.0026
TTTTACAAAA	0.981 ± 0.02
CAATAGGAGA	0.981 ± 0.028

Sequence	switch fluorescence ratio
ATTTCTCTCT	0.993 ± 0.014
TAATTTCGGG	0.986 ± 0.013
ACGGTCCGGG	1.06 ± 0.036
TGGTCTGCCC	0.975 ± 0.053
ATTGGGCACC	0.998 ± 0.048
GTTTTGGTAG	1.001 ± 0.0067
AGACAGCGAG	1.015 ± 0.0021
GGTGAAAGCT	1.04 ± 0.019
AGGGGGGTGG	0.994 ± 0.052
CGGGGCCTTT	1.02 ± 0.037
TATTTCATTG	1.02 ± 0.03
TCGTTTTTTA	1.22 ± 0.45
AATTGATTGT	0.993 ± 0.051
AGTTTGGGGT	1.01 ± 0.029
ACGGGGGGGT	1.09 ± 0.081
TGACTCCAGG	1.23 ± 0.023
TGAGTCGAGC	1.014 ± 0.0066
AAGCAGGGCT	0.999 ± 0.019
TCCGAATGCG	1.11 ± 0.0041
CCGATGATTG	1.08 ± 0.014
AAGGGGATTA	0.99 ± 0.033
GTGGGTGTCC	1.01 ± 0.017
TGATGTTGAA	0.99891 ± 0.00059

Sequence	switch fluorescence ratio
TTAGTCGTCG	1 ± 0.06
CAAACGTGGG	0.98611 ± 0.00012
GAATTATTAA	0.9922 ± 0.0026
TCCCGCTGGG	1.17 ± 0.22
TTGTGCGCGG	1.04 ± 0.019
AAAGACGACA	1.27 ± 0.29
AATCGGGTCA	0.985 ± 0.021
AGATTGGGTT	0.967 ± 0.024
GCCGCGTATC	1.65 ± 0.12
TCTAGGAAAG	0.991 ± 0.034
GGGCCCATA	0.982 ± 0.028
AAAGACATCT	1.02 ± 0.095
GATAGTAAGG	0.9795 ± 0.0075
GAGTAAGTTT	1.012 ± 0.0081
GTTGAGGTCG	0.995 ± 0.022
ACAGGGGGAG	0.983 ± 0.024
AGTAGGCAAA	1.01 ± 0.014
GGGGAAAGCG	1 ± 0.026
TTTGAGTTTT	0.989 ± 0.034
ATTAGGTTCT	0.97 ± 0.051
AGAGGGGTAC	0.992 ± 0.047
GGGTCGCGTG	1.02 ± 0.033
CATATAGGGT	0.976 ± 0.038

Sequence	switch fluorescence ratio
TTTTTCGCTG	1.03 ± 0.022
AAGTCGGTGG	0.987 ± 0.07
TTGTTTTTGC	0.9959 ± 0.0089
CAAATTATGG	1.03 ± 0.01
CATTCGTTTG	0.96 ± 0.0097
GACTTAATGG	0.962 ± 0.051
GATATTGTTT	0.988 ± 0.019
GGATTTAGGT	0.994 ± 0.049
ACAGCGCAAT	2.12 ± 0.94
GCAAGGGGTG	1.1 ± 0.065
ACCTGGCGTA	1.04 ± 0.0016
TATTGACTAG	1.03 ± 0.059
TACGGGCTTA	1.007 ± 0.0044
CAACGCCTCC	3.52 ± 0.082
AAGTGTTCAG	0.982 ± 0.027
ATGCGGGCCA	1.012 ± 0.0061
TTTATAAGGT	0.988 ± 0.012
TGTAAGGGGT	1.06 ± 0.085
TTCCCATTTA	1.04 ± 0.02
GGGTCCATGC	1.01 ± 0.018
GAGCTTTTGA	0.971 ± 0.04
CGGCGCGGAT	1.02 ± 0.04
TTATCTGTAA	1.01 ± 0.051

Sequence	switch fluorescence ratio
GGAATGGGGC	0.993 ± 0.052
TTTCCGTTGA	1.23 ± 0.32
AGTTCAATT	0.9971 ± 0.0032
GGAATTTCTT	1.01 ± 0.047
ATCATACCGG	1 ± 0.035
AGGATGGAGG	1.035 ± 0.0019
GGTGTTTGAC	0.999 ± 0.011
GATTGGGGAT	0.992 ± 0.02
ATCGTTTACG	0.994 ± 0.036
TTAGGATTAA	1.02 ± 0.063
ATAAGCGCGT	0.999 ± 0.017
CCTGAGGGTT	0.985 ± 0.0069
CTCCTTTATT	1.04 ± 0.037
TTTAGCAGGG	1.01 ± 0.026
TTTATAGTCT	0.99 ± 0.021
CCCTAATAGA	1.03 ± 0.026
AGGTATGGTC	0.995 ± 0.031
GGTAACGGGG	1.06 ± 0.065
TAGTTTGGGA	1.01 ± 0.03
